± gives the standard deviation.

Protein stability index data for 29 sequences are collected here from the supplement of paper PMC10567573.

A short description of the data set: protein stability index of a GFP-peptide fusion (GPS, HEK-293T) (PSI 1-6); higher = more stable.
Setting [1] is: treatment: DMSO, c terminus: a fixed tail appended.
[2] abbreviates: treatment: MLN4924 1 uM, 8 h, c terminus: a fixed tail appended.
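Also: 24-mer peptide tiles fused after GFP, lentivirally expressed, FACS-sorted into six equal bins by GFP/DsRed ratio, decoded by Illumina sequencing, PSI is the read-weighted mean bin number.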

Sequence KREAGNLTKATAPDQKSSGGRDS [SSNA1] showed a protein stability index (treatment: DMSO, c terminus: native) of 5.07 ± 0.23 and a protein stability index (treatment: MLN4924 1 uM, 8 h, c terminus: native) of 5.25 ± 0.17.
For the sequence KRFQLTKLPPYLIFCIKRFTKNNF [USP39], the protein stability index by setting is: under setting [1], 2 ± 0.31; under setting [2], 2.78 ± 0.81.
With KRKMVSWEASSLGLVTAALHMVIV [KMT2E], the protein stability index came to 2.53 ± 0.62 under setting [1] and 3.33 ± 0.57 under setting [2].
Consider KRSAPSGPVRSSSGMGGRAPVSRG [RBMX], for which the protein stability index reads like this: under setting [1], 4.59 ± 0.25; under setting [2], 4.57 ± 0.16.
The corresponding values for KSERRNLLEDDSDEEEDFFLRGPS [VAMP4] are 5.09 ± 0.26 and 5.15 ± 0.66.
In the same order, the values of KTSSSSKAGFTASPFTNLLNGSSQ [CDC14A] are 3.46 ± 0.27 and 3.51 ± 0.31.
In the same order, the values of KTVLMIAIQLLSRMEYVHSKNLIY [CSNK1G1] are 3.04 ± 0.1 and 3.23 ± 0.54.
As for KVHIGYLPNKQVLGLSKLARIVEI [GCH1], the protein stability index runs as follows: under setting [1], 2.84 ± 1.1; under setting [2], 2.48 ± 0.8.
In the same order, the values of KVNSKKMLGKYNTPVSYRMAKTLV [ACSBG2] are 1.81 ± 0.082 and 2.05 ± 0.42.
For KVPREKDEPGKGGFWRIDPQYAER [FOXJ1], the protein stability index amounted to 4.12 ± 0.34 under setting [1] and 4.2 ± 0.21 under setting [2].
In the same order, the values of KVQFNLQFTKPNASLGDVQSGATI [SASS6] are 2.45 ± 0.37 and 2.66 ± 0.45.
For the sequence KVSEGQADIMISFVRGDHRDNSPF [MMP1], the protein stability index by setting is: under setting [1], 3.1 ± 0.41; under setting [2], 3.09 ± 0.52.
As to KYGGPNHHLPLPDNWKSQVEPETR [CPN1], the protein stability index was 4.16 ± 0.3 under setting [1] and 4.55 ± 0.28 under setting [2].
The corresponding values for KYLKKREDSIPLRGLSQNLFSNSD [SASS6] are 3.15 ± 0.2 and 3.4 ± 0.29.
In the same order, the values of LAAVAWVGQQVHNLLLTYLIVTSL [ARL6IP1] are 3.32 ± 0.44 and 3.3 ± 0.53.
As to LACGSNRFNKLGLDHLSLGEEPVP [NEK8], the protein stability index by setting is: under setting [1], 3.12 ± 0.14; under setting [2], 3.2 ± 0.14.
For the sequence LAGAALEPAGGGRSREARSRLLLL [SMAD6], the protein stability index reads like this: under setting [1], 3.38 ± 0.27; under setting [2], 3.65 ± 0.31.
In the case of LALFSHLVNHVNIRLQAELEEGEN [SMG5], the protein stability index is 2.5 ± 0.21 under setting [1] and 2.7 ± 0.44 under setting [2].
The corresponding values for LAMGTVSLGQLPLPPIPHVFSAGT [PLAGL1] are 2.24 ± 0.26 and 2.4 ± 0.34.
In the same order, the values of LANLRGLSEEERSEKAMLRSRIEE [CCDC89] are 4.67 ± 0.22 and 4.68 ± 0.12.
In the same order, the values of LASHLPVGVMLPHNTTEAPGPHSA [ZC2HC1C] are 4.3 ± 0.21 and 4.17 ± 0.21.
As for LASQALTPPPGPASAQPLPAPEAA [TFE3], the protein stability index runs as follows: under setting [1], 5.26 ± 0.25; under setting [2], 5.24 ± 0.11.
In the same order, the values of LAVYIDKVRSLETENSALQLQVTE [LMNB1] are 2.25 ± 0.24 and 2.52 ± 0.083.
For LCARLAAGPGAAEPLPVERDPAAG [ZNF511], the protein stability index is, setting by setting: under setting [1], 4.47 ± 0.21; under setting [2], 4.6 ± 0.21.
Consider LDTERPVQKRARSGPQPRLPPCLL [TRIB3], for which the protein stability index is, setting by setting: under setting [1], 3.89 ± 0.41; under setting [2], 4.1 ± 0.3.
LDYTADEDGVWYSVAPMNVRRGLA [KLHL12]: the protein stability index came to 2.41 ± 0.81 under setting [1] and 2.99 ± 0.47 under setting [2].
As for LEAQVESLKEELMCLKKNHEEEVS [KRT36], the protein stability index reads like this: under setting [1], 5.47 ± 0.42; under setting [2], 5.46 ± 0.15.
The corresponding values for LEEKRLTWRLPDVSEAGGSGRLSA [FCHO1] are 4.37 ± 0.25 and 4.25 ± 0.044.
For the sequence LEFSLLSYAFGKFPTVVWTWWIMF [SOAT1], the protein stability index turned out to be 2.98 ± 0.6 under setting [1] and 2.95 ± 0.59 under setting [2].
